Experimental data as given in article PMC5309860 (2017).

B1: His-β-arrestin-1-WT [not stated] / GST-PLCγ-SH3 [human] (parent complex)
chain 1: MGDKGTRVFKKASPNGKLTVYLGKRDFVDHIDLVDPVDGVVLVDPEYLKERRVYVTLTCAFRYGREDLDVLGLTFRKDLFVANVQSFPPAPEDKKPLTRLQERLIKKLGEHAYPFTFEIPPNLPCSVTLQPGPEDTGKACGVDYEVKAFCAENLEEKIHKRNSVRLVIRKVQYAPERPGPQPTAETTRQFLMSDKPLHLEASLDKEIYYHGEPISVNVHVTNNTNKTVKKIKISVRQYADICLFNTAQYKCPVAMEEADDTVAPSSTFCKVYTLTPFLANNREKRGLALDGKLKHEDTNLASSTLLREGANREILGIIVSYKVKVKLVVSRGGLLGDLASSDVAVELPFTLMHPKPKEEPPHREVPENETPVDTNLIELDTNDDDIVFEDFARQRLKGMKDDKEEEEDGTGSPQLNNR
chain 2: TFKCAVKALFDYKAQREDELTFIKSAIIQNVEKQEGGWWRGDYGGKKQLWFPSNYVEEMVN

Variants of: B1
Assay: GST pull down assay (quantified western blot); 5 μM GST-PLCγ-SH3, 5 μM β-arrestin-1, with GRK6pp; parent: 2.5; read off a plot
With chain 1 MGDKGTRVFKKASPNGKLTVYLGKRDFVDHIDLVDPVDGVVLVDPEYLKERRVYVTLTCAFRYGREDLDVLGLTFRKDLFVANVQSFPPAPEDKKPLTRLQERLIKKLGEHAYPFTFEIPANLPCSVTLQPGPEDTGKACGVDYEVKAFCAENLEEKIHKRNSVRLVIRKVQYAPERPGPQPTAETTRQFLMSDKPLHLEASLDKEIYYHGEPISVNVHVTNNTNKTVKKIKISVRQYADICLFNTAQYKCPVAMEEADDTVAPSSTFCKVYTLTPFLANNREKRGLALDGKLKHEDTNLASSTLLREGANREILGIIVSYKVKVKLVVSRGGLLGDLASSDVAVELPFTLMHPKPKEEPPHREVPENETPVDTNLIELDTNDDDIVFEDFARQRLKGMKDDKEEEEDGTGSPQLNNR [chain 1 P121A] the screen value was ~2.7 fold.
chain 1 MGDKGTRVFKKASPNGKLTVYLGKRDFVDHIDLVDPVDGVVLVDPEYLKERRVYVTLTCAFRYGREDLDVLGLTFRKDLFVANVQSFPPAPEDKKPLTRLQERLIKKLGEHAYPFTFEIPPNLPCSVTLQPGPEDTGKACGVDYEVKAFCAENLEEKIHKRNSVRLVIRKVQYAPERPGAQPTAETTRQFLMSDKPLHLEASLDKEIYYHGEPISVNVHVTNNTNKTVKKIKISVRQYADICLFNTAQYKCPVAMEEADDTVAPSSTFCKVYTLTPFLANNREKRGLALDGKLKHEDTNLASSTLLREGANREILGIIVSYKVKVKLVVSRGGLLGDLASSDVAVELPFTLMHPKPKEEPPHREVPENETPVDTNLIELDTNDDDIVFEDFARQRLKGMKDDKEEEEDGTGSPQLNNR [chain 1 P180A] was tested, and the screen value was ~2.6 fold.
chain 1 MGDKGTRVFKKASPNGKLTVYLGKRDFVDHIDLVDPVDGVVLVDPEYLKERRVYVTLTCAFRYGREDLDVLGLTFRKDLFVANVQSFAAAAEDKKPLTRLQERLIKKLGEHAYPFTFEIPPNLPCSVTLQPGPEDTGKACGVDYEVKAFCAENLEEKIHKRNSVRLVIRKVQYAPERPGPQPTAETTRQFLMSDKPLHLEASLDKEIYYHGEPISVNVHVTNNTNKTVKKIKISVRQYADICLFNTAQYKCPVAMEEADDTVAPSSTFCKVYTLTPFLANNREKRGLALDGKLKHEDTNLASSTLLREGANREILGIIVSYKVKVKLVVSRGGLLGDLASSDVAVELPFTLMHPKPKEEPPHREVPENETPVDTNLIELDTNDDDIVFEDFARQRLKGMKDDKEEEEDGTGSPQLNNR [chain 1 P88A, chain 1 P89A, chain 1 P91A] gave a screen value of ~1.1 fold.

Variants of: B1
Assay: GST pull down assay (quantified western blot); 5 μM GST-PLCγ-SH3, 5 μM β-arrestin-1, without GRK6pp; parent: 1; read off a plot
In the case of chain 1 MGDKGTRVFKKASPNGKLTVYLGKRDFVDHIDLVDPVDGVVLVDPEYLKERRVYVTLTCAFRYGREDLDVLGLTFRKDLFVANVQSFPPAPEDKKPLTRLQERLIKKLGEHAYPFTFEIPANLPCSVTLQPGPEDTGKACGVDYEVKAFCAENLEEKIHKRNSVRLVIRKVQYAPERPGPQPTAETTRQFLMSDKPLHLEASLDKEIYYHGEPISVNVHVTNNTNKTVKKIKISVRQYADICLFNTAQYKCPVAMEEADDTVAPSSTFCKVYTLTPFLANNREKRGLALDGKLKHEDTNLASSTLLREGANREILGIIVSYKVKVKLVVSRGGLLGDLASSDVAVELPFTLMHPKPKEEPPHREVPENETPVDTNLIELDTNDDDIVFEDFARQRLKGMKDDKEEEEDGTGSPQLNNR [chain 1 P121A], the screen value is reported as ~1.1 fold.
Work on chain 1 MGDKGTRVFKKASPNGKLTVYLGKRDFVDHIDLVDPVDGVVLVDPEYLKERRVYVTLTCAFRYGREDLDVLGLTFRKDLFVANVQSFPPAPEDKKPLTRLQERLIKKLGEHAYPFTFEIPPNLPCSVTLQPGPEDTGKACGVDYEVKAFCAENLEEKIHKRNSVRLVIRKVQYAPERPGAQPTAETTRQFLMSDKPLHLEASLDKEIYYHGEPISVNVHVTNNTNKTVKKIKISVRQYADICLFNTAQYKCPVAMEEADDTVAPSSTFCKVYTLTPFLANNREKRGLALDGKLKHEDTNLASSTLLREGANREILGIIVSYKVKVKLVVSRGGLLGDLASSDVAVELPFTLMHPKPKEEPPHREVPENETPVDTNLIELDTNDDDIVFEDFARQRLKGMKDDKEEEEDGTGSPQLNNR [chain 1 P180A] yielded a screen value of ~1.2 fold.
chain 1 MGDKGTRVFKKASPNGKLTVYLGKRDFVDHIDLVDPVDGVVLVDPEYLKERRVYVTLTCAFRYGREDLDVLGLTFRKDLFVANVQSFAAAAEDKKPLTRLQERLIKKLGEHAYPFTFEIPPNLPCSVTLQPGPEDTGKACGVDYEVKAFCAENLEEKIHKRNSVRLVIRKVQYAPERPGPQPTAETTRQFLMSDKPLHLEASLDKEIYYHGEPISVNVHVTNNTNKTVKKIKISVRQYADICLFNTAQYKCPVAMEEADDTVAPSSTFCKVYTLTPFLANNREKRGLALDGKLKHEDTNLASSTLLREGANREILGIIVSYKVKVKLVVSRGGLLGDLASSDVAVELPFTLMHPKPKEEPPHREVPENETPVDTNLIELDTNDDDIVFEDFARQRLKGMKDDKEEEEDGTGSPQLNNR [chain 1 P88A, chain 1 P89A, chain 1 P91A] was tested, and the screen value was ~1.1 fold.
